Kd data for one molecule are collected here from paper PMC10823224 (2024).

In the assay the target is fusion-competent ectodomain of influenza virus A/PR8/34 (Ecto-PR8/34) hemagglutinin (influenza virus A/PR/8/34, UniProt P03452 18-528). Put plainly: BLI. Background: In BLI a coated tip is dipped into the sample, and binding shifts an interference pattern.
fusion-competent ectodomain of influenza virus A/PR8/34 (Ecto-PR8/34) hemagglutinin, sequence (P03452 18-528): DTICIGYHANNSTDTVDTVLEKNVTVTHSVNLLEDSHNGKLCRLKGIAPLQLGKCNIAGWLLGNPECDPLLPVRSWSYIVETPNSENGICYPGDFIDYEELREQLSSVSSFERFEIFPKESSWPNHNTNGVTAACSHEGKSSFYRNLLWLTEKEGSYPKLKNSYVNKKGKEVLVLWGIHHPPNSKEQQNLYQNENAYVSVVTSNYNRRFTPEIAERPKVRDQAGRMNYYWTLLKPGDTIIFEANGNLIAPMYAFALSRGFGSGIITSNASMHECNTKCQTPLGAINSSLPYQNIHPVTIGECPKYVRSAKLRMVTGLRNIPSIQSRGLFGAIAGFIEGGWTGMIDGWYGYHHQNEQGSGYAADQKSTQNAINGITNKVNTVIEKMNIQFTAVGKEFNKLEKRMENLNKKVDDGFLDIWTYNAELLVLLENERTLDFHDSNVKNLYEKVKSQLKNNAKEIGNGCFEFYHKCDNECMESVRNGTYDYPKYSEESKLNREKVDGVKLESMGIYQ

B1: anti-HA antibody C179 (antibody, V domains shown)
VH: EVKLVESGGGLVQPGGSLRLSCGTSGFTLTDDYMTWVRQPPGKALEWLGFIRDRANGYTTEYSASVKGRFTISRDNSQSIVYLQMNTLRVEDSATYYCARPKGYFPYAMDYWGQGTSVIVSS
VL: DIQMTQSPASQSASLGESVTITCLASQTIGTWLAWYQQKPGKSPQLLIYAATSLADGVPSRFSGSGSGTKFSFKISSLQAEDFVSYYCQQLYSTPWTFGGGTRLEIKR
One may read the Kd as the equilibrium constant for the complex coming apart. Read a low Kd as higher affinity. Consider B1, for which the Kd is 18.4 nM.
